Reference: paper PMC4892554

Legend:
D25 = assay: flow cytometry on cells (shotgun mutagenesis alanine scan, HEK293T); details: read off a plot
Palivizumab = assay: as above; details: read off a plot

Substance	percent of parent (D25)	percent of parent (Palivizumab)
wildtype RSV F (RSV-A2) expressed on HEK-293T cells (from UniProt P03420) D385A	88 % WT	140 % WT
wildtype RSV F (RSV-A2) expressed on HEK-293T cells (from UniProt P03420) F387A	74 % WT	150 % WT
wildtype RSV F (RSV-A2) expressed on HEK-293T cells (from UniProt P03420) G446A	90 % WT	70 % WT
wildtype RSV F (RSV-A2) expressed on HEK-293T cells (from UniProt P03420) K433A	120 % WT	150 % WT
wildtype RSV F (RSV-A2) expressed on HEK-293T cells (from UniProt P03420) K465A	100 % WT	140 % WT
wildtype RSV F (RSV-A2) expressed on HEK-293T cells (from UniProt P03420) N388A	74 % WT	87 % WT
wildtype RSV F (RSV-A2) expressed on HEK-293T cells (from UniProt P03420) N426A	230 % WT	290 % WT
